Assay: yeast display, Sf9 membrane polyspecificity reagent, FACS + sequencing; frameworks hold sequencing errors
How it was run: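 Nanobodies from a synthetic yeast display library (Saccharomyces cerevisiae BJ5465), induced 36–48 hours with galactose, were stained 1 hour at 4 °C with 10% biotinylated, detergent-solubilized Sf9 membrane reagent, enriched on streptavidin microbeads, then FACS-sorted. Anti-HA (expression) and streptavidin (reagent binding) fluorescence set low and high (top ~1%) gates. Polyreactivity labels come from the gate of origin. Genes were colony-PCR amplified, MiSeq 2 × 250 sequenced and filtered by CDR length.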

QVQLVESGGGLVQAGGSLRLSCAASGFTFSNYTMGWYRQAPGKERELVAAIRSSGGRTYYADSVKGRFTISRDNAKNTVYLQMDSLKPEDTAVYYCNAEYRTDGGYWVQGTQVTVSS
polyreactivity (PSR sort gate): low polyreactivity

QVQLVESGGGLVQAGGSLPLICADSGFISAYYAMGWYRQAPGKEREFVAGISKSGSSTSYADSVKGRFTISRDNAKKTVYLQMNSLKPEDTAVYYCAKYTPYYSELGYWGQGTQVTVSS
polyreactivity (PSR sort gate): high polyreactivity

QVQLVESGGGLVQAGGSLRLSCAASGFISRKNAMGWYRQAPGKERELVAAISKSGGRTYYADSVKGRFTISRDNAKNTVYLQMNSLKPEDTAVYYCNRVPRDSWPYAWYDYWGQGTQVTVSS
polyreactivity (PSR sort gate): high polyreactivity

QVQHVESCGGLVQAGGSLRLSCAASGFTFASNVMGWYRQAPGKERDLVAAITSGASTNYADSVKGRFTISRDNAKNTFYLQMNSLKPEDTAVYYCAAGRQWYVFYEFDYWGQGTQVTVSS
polyreactivity (PSR sort gate): high polyreactivity

QVQLVESGGGLVQAGGSLRLSCAASGYIFQPYAMGWYRQAPGKERELVAAISWRGGTTYYADSVKGRFTISRDNAKITVYLQMNSLKPEDTAVYDCAKDYYYGLDHYGYWGQGTQVTVSS
polyreactivity (PSR sort gate): low polyreactivity

QVQLVESGRGLVQAGGSLRLSSAASGSISLFLTMGWYRQAPGKERELVAAINYTDITKYADSVKGRFTISRDNAKNTVYLQMKSLKPDDTAVYYCARDEGYEYPLGRGGYWGQGTQVTVSS
polyreactivity (PSR sort gate): low polyreactivity

QVQLVESGGGLVQAGGSLRLSCAASGRIFRGNAMVWSRQAPGKERELVASISWRGASTDYADSVKGRFTISRDNAKNTVYLQMNRMKPEDTAVYYCAARVVWRISVYYVIDYNYWGQGTQVTVSS
polyreactivity (PSR sort gate): high polyreactivity

QVQLVESGGGLVQAGGSLRLSCAASGRIFAFNAMGWYRQAPGKERELVADITSSGVNTYYADSVKGRFTISRDNAKNTVYLQMNSLKPEDTAVYYCAARSYLRWWVGMEYWGQGTQVTVSS
polyreactivity (PSR sort gate): low polyreactivity

QVQLVESGGGLVQAGGSLRLSCAASGSIFFYYAMGWYRQAPGKERELVASISTDGSTYADSVKGRFTISRDNAKNTVSLQMNSLKPEDTAFYYCATRGAEAERFASYDFDYWGQGTQVTVSS
polyreactivity (PSR sort gate): low polyreactivity

QVQLVDSGGGLVQAGGSLRLSCAASGFIFDLYAMGWYRQAPGKERELVAAITTSGGTTYYADSVKGRFTISRDNAKNTVYLQMNSLIPEDTAVYFCAARRYSWYYYWGQGTQVTVSS
polyreactivity (PSR sort gate): high polyreactivity

QVQLVESGGGLVQAGGSLRLSCAASGSIFSRIAMGWYRKAPGKERELVAAISGRGGSTYYADSVKGRFTISRDNAKNTVYLHMKSLKPEDTAVYYCAKAVNYRLSQAMDYWGQGTQVTVSS
polyreactivity (PSR sort gate): high polyreactivity

QVQLVESGGGLVQAGGSLRLSCAASGSIFRYYAMGWYRQAPGKERELVASINSGGSTYYADSVKGRFTISRDNAKNTVYLLMNSLKPEDTAVYYCAAETSYYYRGYWKSYDYWGQGTQVTVSS
polyreactivity (PSR sort gate): high polyreactivity

QVQLVESGGGLVQAGGSLRLSCAASGSTFRSYAMGWYRQAPGKERELVAAISVSGGSTYYADSVKGRFTISRDNAKNTVYLQMNSLKPEDTAVYYCAASYVPSYAPGRYYYWGQGTQVTVSS
polyreactivity (PSR sort gate): high polyreactivity

QVQLVESGGGLVQAGGSLRLSCAASGRIFNRNAMGWYRQAPGKERELVASISSGGRTNYADSVKGRFTISRDNAKNTVYLLMNSLKPEDTAVYYCAAKSPRILLDYWGQGTQVTVSS
polyreactivity (PSR sort gate): low polyreactivity

QVQLVESGGGLVQAGGSLRLSCAASGSTFESNFMGWYRQAPGKEWELVAAITWTGGSTYYADSVKGRFTISRDNAKNNVYLQMNSLKPVDTAVYYCATYDPGPLLGSDYWGHGTQVTVSS
polyreactivity (PSR sort gate): low polyreactivity

QVQLLESGGRLVQAGRSLRLSCAASGRTFGPYAMGWYRQAPGKEREFVAAISSRGGRTYYADSVKGRFTISRDNAKNTVYLQLNSLKPEDTAVYYCAAEYNYSNKYLYLFLQMDYWGQGSQVTVSS
polyreactivity (PSR sort gate): low polyreactivity

QVQLVESGGGLVQAGGSLRLSCAASGFISGYYTMRWYRQAPGKERELVAVINSGGSTYYADSVKGRFTISRDNAKNTVYFQMNSLKPEDTAVYYCAKLGGKYSRYYYWGHGTQVTVSS
polyreactivity (PSR sort gate): low polyreactivity

QVQLEESGGGLVQAGGSLRLSCAASGFIFSRNAMGWYRQAPGKERELVAAITGSGARTYYADSVKGRFTISRDNAKNTVYLQMNSLKPEDTAVYYCNADARGGIYFRGVKFDYWGLGTQVTVSS
polyreactivity (PSR sort gate): high polyreactivity

QVQLVESGGGLVQAGGSLRLSCAASGRTFGANAMGWYRQAPGKERELVAAINSGDITNYADSVKGRFTISRDNAKNTVYLQMNSLKPEDTAVYYCAAGSYYTYSGYNYWGQGTQVTVSS
polyreactivity (PSR sort gate): low polyreactivity

QVQLVESGGGLVQAGGSLRLSCAASGNTFGYNAMGWYRQAPGKERELVAAISSSGTRTYYADSVKGRFTISRDNAKNTVYLQMNSLKPEDTAVYYCNARSTRYKFGYWGQGTQVTVSS
polyreactivity (PSR sort gate): high polyreactivity

QVQLVESGGGLVQAGGSLRLSCAASGRISGFNAMGWYRQAPGKDRELVAAISYRGGSTSADSVKGRFTISRDNAKNTVYLQMNSLKPEDTAVYYCAADVRFYQYSDYDYWGQGTQVTVSS
polyreactivity (PSR sort gate): low polyreactivity

QVQLVESGGGLVQAGGSLRLSCAASGRTYGWYAMGWYRQAPGKERELVAAIRSSGGRTHYADSVKGRFTISRDNAKNTVYLQMNSLKPEDTAVYYCAARYSAAYYWGQGTQVTVSS
polyreactivity (PSR sort gate): high polyreactivity

QVQLVESGGGLVQAGGSLRLSCAASGFIFPYDAMGWYSQAPGNERELVAAITSSGGRTYYADSVQGRFTISRDNAKNTVYFQMNSLKPEDTAVYYCAARGAPPAYGYWGQGTQVTVSS
polyreactivity (PSR sort gate): high polyreactivity

QVQLVDSGGGLVQAGGSLRITCAASGFTFTRYALGGYRQAPGKERELVAVITSTAGSTYYADSVKGRFTISRDNAKNSVYLQMNSLKAEVTAVYFCAAESLVHGDVTLEEVVAQSYDYWGQGSQVTVSS
polyreactivity (PSR sort gate): low polyreactivity

QVQLVESGGGLVQAGGSLRLSCAASGNIFTLNTSGCYRQAPGKERELVARITSGDRKYYADSVKGRFTISRDNAKNTVYLQMNSLKPEDTAVYYCAARRPAYYSFWVTGYNYWGQGTQVTVSS
polyreactivity (PSR sort gate): high polyreactivity

QVQLVESGGGLDQAGGSLRLSCAASGRTFANAMGWYRQAPGKERELVAGITSGGGRTYYADSVKGRFTMSRDNAKNTVYLQMNSLKPEDTAVYYCNRATPPGRLKSDSWGQGTQVTVSS
polyreactivity (PSR sort gate): high polyreactivity

QVQLVESGGGLVQAGGSLRLSCAASGSIFRPYAMGWYRQAPGKERELVAAISDSGGSTYYADSVKGRFTISRDNAKNTVYLQMNSLKPEDTAVYYCNAYSVWYYLASVLEVDYWGQGTQVTVSS
polyreactivity (PSR sort gate): low polyreactivity

QVQLVESGGGLVQAGGSLRLSCAASGIIIRYYAMGWYRQAPGKERELVAAISTSGGRTYYADSVKGRFTISRDNAKNPVYLQMNSLKPEDTAVYYCAARPGSWYPSVPSYNYWGQGTQVTVSW
polyreactivity (PSR sort gate): low polyreactivity

QVQLVESGGGLVQAGGSLRLSCAASGRTFARYAMGWYRQAPGKERELVAAISWSGGSTYYADSVKGRFTISRDNAKNTVYLQMNSLKPEDTAVYYCAAGYGARSAIFDVYGTNEGDYWGQGTQVTVSS
polyreactivity (PSR sort gate): high polyreactivity

QVQLVESGGGLVQAGGSLRLSCAASGNTQGYNAAMGWYRQAPGKERELVAAINSGGGSTYYADSVKGRFTISRDNAKNTVYLQMNSLKPEDTAVYYCAARYRSRYDYYYDRDYWGQGTQVTVSS
polyreactivity (PSR sort gate): low polyreactivity

QVQLVESGGGLVQAGGSLLLSCPASGRIFTWYAMGWYRQAPGKERELVAAINYNGDDTYYADSVKGRFTISRDNAKNTVYLQMNSLKPEDTAVYYCAAEGSRPPYDYWGQGTQVTVSS
polyreactivity (PSR sort gate): high polyreactivity

From the nanobody polyreactivity screen of Harvey et al. (2022)
